Measured values taken from doi:10.1101/2025.08.03.668247, “The structure of Egalitarian in complex with the K10 mRNA localization signal reveals a modular binding surface required for function”.
Changes are numbered by the printed parent chain.

What was measured:
Assay in all cases: fluorescence anisotropy; FA: 20 mM HEPES-NaOH pH 7.5, 100 mM NaCl, 10% glycerol, 20 C, 10 nM FAM-RNA; competition: 150 nM Egl512-819 + 10 nM FAM-K10 TLS, same buffer
Settings in all cases: protein: recombinant; tags: N-terminal GST; label: 5'-6-FAM; hairpin with two bulges
R753A = biological target: T1, R753A (Drosophila melanogaster, UniProt Q9W1K4 512-819, R753A)
T1 sequence: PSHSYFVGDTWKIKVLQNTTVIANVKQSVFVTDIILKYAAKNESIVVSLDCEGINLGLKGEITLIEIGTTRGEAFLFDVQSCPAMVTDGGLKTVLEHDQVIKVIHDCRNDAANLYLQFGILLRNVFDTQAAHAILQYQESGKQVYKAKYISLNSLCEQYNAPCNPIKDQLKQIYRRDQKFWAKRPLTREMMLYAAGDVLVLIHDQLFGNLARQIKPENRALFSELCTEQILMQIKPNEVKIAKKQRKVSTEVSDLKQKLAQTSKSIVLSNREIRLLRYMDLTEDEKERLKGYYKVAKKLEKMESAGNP

K758A = biological target: T2, K758A (Drosophila melanogaster, UniProt Q9W1K4 512-819, K758A)
T2 sequence: T1 sequence with A242R, K247A

R619E = biological target: T3, R619E (Drosophila melanogaster, UniProt Q9W1K4 512-819, R619E)
T3 sequence: T1 sequence with R108E, A242R

EXO-L (Egl512-770) = biological target: T4, EXO-L (Egl512-770) (Drosophila melanogaster, UniProt Q9W1K4 512-770)
T4 sequence: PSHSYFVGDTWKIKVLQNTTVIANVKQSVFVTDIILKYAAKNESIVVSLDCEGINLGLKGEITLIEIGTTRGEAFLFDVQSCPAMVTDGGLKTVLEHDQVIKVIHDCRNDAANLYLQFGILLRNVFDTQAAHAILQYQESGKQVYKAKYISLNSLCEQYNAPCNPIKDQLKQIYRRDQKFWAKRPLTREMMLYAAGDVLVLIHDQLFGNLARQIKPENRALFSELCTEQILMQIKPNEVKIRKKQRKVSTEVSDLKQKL

Binder: CUUGAUUGUAUUUUUAAAUUAAUUCUUAAAAACUACAAAUUAAG (structured_RNA) [K10 TLS (FAM)]
- Kd (R753A): 95 ± 5 nM
- Kd (K758A): 319 ± 19 nM
- Kd (R619E): 318 ± 15 nM
- Kd (EXO-L (Egl512-770)): 807 ± 104 nM
